Laboratory results taken from the supplement of paper PMC9170038.

Key:
MS2 coat protein [1] = assay: apparent KD of MS2 coat protein, switch OFF state (with FMN for OFF switches, without FMN for ON switches); designed switch direction (-1 OFF switch, 1 ON switch): -1; higher = weaker reporter binding; settings: FMN input: 0 or 200 uM; Eterna round: R93 (includes R88 designs)
In short: (§1)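 The designed RNA switches were transcribed on-chip from Illumina sequencing clusters. In 100 mM Tris-HCl pH 7.5, 80 mM KCl and 4 mM MgCl2, without or with constant ligand, they were titrated with SNAP-549-labelled MS2 coat protein from 0.7 or 1.5 nM to 3 µM in twofold steps. Apparent KD is the per-design median of normalised cluster binding-curve fits.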

MS2 coat protein [2] = assay: apparent KD of MS2 coat protein, switch ON state; designed switch direction (-1 OFF switch, 1 ON switch): -1; higher = weaker reporter binding; settings: FMN input: 0 or 200 uM; Eterna round: R93 (includes R88 designs)
In short: as §1

| Sequence | apparent KD of MS2 coat protein (MS2 coat protein [1]) [nM] | apparent KD of MS2 coat protein (MS2 coat protein [2]) [nM] |
| --- | --- | --- |
| ACGUGACAUGAGGAUCACCCAUGUUAGGAUAUGCGAAUUCAAAAUCAGCUAACGCUGAGCAGAAGGAACAUGGU [Esriange] | 88.9 | 36.2 |
| GAAACUGGAGGAUAUACGUACAUGUCAAAAGACGUGAAGGGACAUGAGGAUCACCCAUGUAGAAGGCUAGAAAG [Mat - Exclusion 2 - JL mod - D97] | 21.9 | 70.6 |
| AUAAACAGAGGAUAUACGCGGAUUAUUGAAAUUAUUGAUUCACAUGAGGAUCACCCAUGUAGAAGGCUGGAAAA [LROPPY Exclusion 2 - v04_doubled Us] | 124 | 35.7 |
| CUCUAGUCAGGAUAUGCAUGAAAUGAAGUGAAAGAAAAGAAGCAGAAGGGACAUGAGGAUCACCCAUGUUAGAA [EteRNA is fun!] | 38.3 | 29.6 |
| AAUAAGUCAGGAUAUACUAAAGAAAUGAAAAGAAAUAAAGAACAUGAGGAUCACCCAUGUAGAAGGGACAAUAA [Anati Djedkare] | 53.6 | 100 |
| CUCUAGUUAGGAUAUGCAAGAAAAGAAGAGAAAGAAAAGAAGCAGAAGGAACAUGAGGAUCACCCAUGUAAGAA [EteRNA is fun!] | 20.4 | 22.7 |
| AGUUGGCGAGGAUAUACAUGAGGAUCACCCAUGUGAGAGAAAAAAGUGAGAAAGAAAAGUAGAAGGCGCUGACU [salish99-ex3-06] | 307 | 46.4 |
| AUAAUCCUAGGAUAUACAUGGAUAUACAUUCAUGUGGACCUACAUGAGGAUCACCCAUGUAGAAGGAGGAUGAA [Mat - Same state - Mayanna Mod - D138] | 39.5 | 35 |
| ACCAAUGCAGGAUAUACAUGAGGAUCACCCAUGUAUAACCUACAUAGAUGAUAAAAAUGUAGAAGGGCAUUGGA [EX3 232: Super Stable 32] | 20.3 | 16 |
| AAAAAUGGAGGAUAUACAUGAGGAUCACCCAUGUGUGGGUAUACUGUGUCGGCGUCAGGUAGAAGGCCAAAAAA [Gilly Gone Silly 28 - Jieux - Exclusion 3] | 121 | 132 |
| AACAGGUCAGGAUAUGUGGAAAAAAUAAAAAAAAAUAAAACACAGAAGGGACAUGAGGAUCACCCAUGUAAACA [Mat - Exclusion 4 - Mayanna - D143] | 56.8 | 49.3 |
| AAAAAACAUGAGGAUCACCCAUGUAAGGAUAUACAAAACCCAUAUAAAAAGGGAAAAAGUAGAAGGUGCAAAAA [wbt round 1 mod 7] | 23.1 | 22.5 |
| AAAAAGGGAGGAUAUACAUGAGGAUCACCCAUGUAACAGACGAAAAAGAGUCUGAAAUGUAGAAGGCCCAAAAA [65%, Moding Exclusion3-cac2, 5] | 48.4 | 24.6 |
| AAAAAGCUAGGAUAUACAUGAAAAAAAAAAAAGUAAAAAAAACAUGAGGAUCACCCAUGUAGAAGGAGCAAAAA [water's exclusion 2 last] | 37 | 40.4 |
| AGGAAACAUGAGGAUCACCCAUGUGAGGAUAUUCAAAAGAAAAGAAAAGAAAGAAGAAGAAGAAGGUACAAGAA [Neferefre] | 29.9 | 28.3 |
| GAAAAGGAAGGAUAUACAAAGGGACCUUAUAAAAGAAGAAGACAUGAGGAUCACCCAUGUAGAAGGUCCAGAUA [Diusanatra] | 19.6 | 19.5 |
| AUGUACCUAGGAUAUACAUGAGGAUCACCCAUGUUCCGGGAGCAAUCAAGUUAAUAUUGUAGAAGGAGGUGAAA [JR_Exc003_Sub314] | 28.4 | 16 |
| AACAGUACAGGAUAUACAUGAGGAUCACCCAUGUGAGCAUUAAAAGGCGUACCUCAAAGUAGAAGGGUACUGGA [JL Maslow Revisted mod 23] | 18.9 | 107 |
